Experiments:
[1] = biological target: T1, Human CDH6-ECD-His (human, UniProt P55285 54-615); assay: BLI (Octet), antibody on AHC sensor, antigen 3.13-100 nM, 1:1 model
T1 construct: extracellular domain; Bought protein; also called human CDH6-ECD-His recombinant protein; Human CDH6-EC6D-His; not shown: His tag
T1 sequence (looked up): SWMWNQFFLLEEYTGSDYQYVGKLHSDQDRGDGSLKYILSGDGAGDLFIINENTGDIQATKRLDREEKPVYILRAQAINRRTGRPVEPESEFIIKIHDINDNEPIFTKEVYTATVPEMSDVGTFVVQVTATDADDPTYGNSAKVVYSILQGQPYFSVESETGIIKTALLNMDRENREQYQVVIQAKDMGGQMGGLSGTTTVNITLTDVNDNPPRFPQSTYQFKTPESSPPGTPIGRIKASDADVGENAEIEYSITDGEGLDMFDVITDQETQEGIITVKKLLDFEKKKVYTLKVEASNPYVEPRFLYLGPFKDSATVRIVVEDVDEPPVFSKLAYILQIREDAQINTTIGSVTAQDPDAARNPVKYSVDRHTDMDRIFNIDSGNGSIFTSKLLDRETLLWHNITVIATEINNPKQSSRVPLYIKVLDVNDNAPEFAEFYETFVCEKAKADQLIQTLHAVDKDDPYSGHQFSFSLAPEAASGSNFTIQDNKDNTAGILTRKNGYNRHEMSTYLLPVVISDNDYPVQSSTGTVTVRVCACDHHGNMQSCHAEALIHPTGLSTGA
Protocol: (§1) Binding affinities of CL069707-H1L1 and Ch069707 were measured using the Octet® system based on Bio-Layer Interferometry (BLI) technique. Antibodies were loaded to AHC (Anti-hIgG Fc Capture) at 100 nM concentration. […] From the six different binding curves obtained from each antigen concentration, binding constants (KD) were calculated based on the 1:1 binding model. CL069707-H1L1 and Ch069707 binds to human CDH6-ECD-His antigen with similar affinity. CL069707-H1L1 binds to human CDH6-ECD-His and cyno monkey CDH6-ECD-His antigens with similar affinity.

[2] = biological target: T2, cyno monkey CDH6-ECD-His (cyno monkey, UniProt A0A2K5TW62 54-615); assay: as above
T2 construct: extracellular domain; Bought protein; also called Cyno CDH6-ECD-His; not shown: His tag
T2 sequence: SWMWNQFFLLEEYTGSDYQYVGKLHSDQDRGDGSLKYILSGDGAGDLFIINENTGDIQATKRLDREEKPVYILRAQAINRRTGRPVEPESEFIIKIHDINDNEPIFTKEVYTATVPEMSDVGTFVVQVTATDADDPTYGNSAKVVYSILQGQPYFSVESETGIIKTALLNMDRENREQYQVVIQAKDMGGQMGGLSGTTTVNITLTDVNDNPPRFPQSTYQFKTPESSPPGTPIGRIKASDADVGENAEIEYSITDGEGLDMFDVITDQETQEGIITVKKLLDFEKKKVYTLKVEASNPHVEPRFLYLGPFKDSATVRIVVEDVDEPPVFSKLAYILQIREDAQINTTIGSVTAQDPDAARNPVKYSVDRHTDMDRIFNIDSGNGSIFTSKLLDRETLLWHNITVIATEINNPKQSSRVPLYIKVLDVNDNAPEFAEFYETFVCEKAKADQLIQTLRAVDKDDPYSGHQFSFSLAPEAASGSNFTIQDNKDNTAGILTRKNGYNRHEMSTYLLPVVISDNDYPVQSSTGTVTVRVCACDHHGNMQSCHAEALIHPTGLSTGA
Protocol: as §1

[3] = biological target: T3, CDH6 on the cell surface of OVCAR-3 cells (human ovarian cancer cells) (human, UniProt P55285 54-790); assay: flow cytometry (FACS) on OVCAR-3 cells, antibody titration, labelled secondary antibody, MFI
T3 construct: whole, on cells; also called CDH6-positive human ovarian cancer cell line OVCAR-3
T3 sequence (looked up): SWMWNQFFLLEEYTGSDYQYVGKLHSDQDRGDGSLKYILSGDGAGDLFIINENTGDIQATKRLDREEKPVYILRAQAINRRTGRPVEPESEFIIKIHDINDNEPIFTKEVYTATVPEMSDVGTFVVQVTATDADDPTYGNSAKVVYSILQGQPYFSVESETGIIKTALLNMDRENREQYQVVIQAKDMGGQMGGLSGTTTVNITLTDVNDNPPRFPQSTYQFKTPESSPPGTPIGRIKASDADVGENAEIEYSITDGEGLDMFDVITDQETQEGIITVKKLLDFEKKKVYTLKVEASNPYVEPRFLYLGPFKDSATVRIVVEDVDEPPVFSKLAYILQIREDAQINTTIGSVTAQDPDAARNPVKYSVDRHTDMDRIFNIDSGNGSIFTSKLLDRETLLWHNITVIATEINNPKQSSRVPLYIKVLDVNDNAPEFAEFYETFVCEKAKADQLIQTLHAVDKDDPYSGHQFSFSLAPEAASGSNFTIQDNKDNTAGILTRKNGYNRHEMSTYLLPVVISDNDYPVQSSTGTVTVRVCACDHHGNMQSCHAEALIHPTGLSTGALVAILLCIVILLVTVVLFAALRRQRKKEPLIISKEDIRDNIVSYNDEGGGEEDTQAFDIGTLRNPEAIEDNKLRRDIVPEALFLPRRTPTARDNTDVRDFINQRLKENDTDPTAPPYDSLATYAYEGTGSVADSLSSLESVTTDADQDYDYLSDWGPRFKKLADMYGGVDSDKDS
Protocol: The binding EC50 of the humanized antibodies on tumor cell were tested as follow. Human ovarian cancer cell line OVCAR-3(purchased from National Collection of Authenticated Cell Cultures) cell culture was maintained in vitro as independent monolayer cultures at 37° C. in an atmosphere of 5% CO₂. The cells were harvested using trypsin-EDTA partial digestion followed by centrifugation at 1000 rpm for 5 minutes. The cell was resuspended in cold PBS and serial dilution of Ch069707 and CL069707-H1L1, CL069707-H1L2, CL069707-H2L1 and CL069707-H2L2 antibodies were added. Ch069707 antibody was a chimeric antibody. The variable regions were the same as those of CL069707, and the constant region was the same as human IgG1 constant regions (SEQ ID NO: 70 and SEQ ID NO: 71). The cell solutions were mixed, incubated at 4° C. and washed with cold PBS prior to addition of secondary antibody conjugates (for detection purposes). After incubation at 4° C., the cells were washed with PBS, and then subjected to flow cytometry (FACS) analysis.

- Kd [1]: 3.08 nM
- Kd [2]: 2.69 nM
- EC50 (read off the curve) [3]: ~1 nM
B1: CL069707-H1L1 (antibody, human IgG1, kappa, V domains shown)
VH: EVQLVESGGGLVQPGGSLRLSCAASGFTFTTYAMNWVRQAPGKGLEWVARIRIKNNNYATYYADSVTDRFTISRDDSKNSLYLQMNSLKTEDTAVYYCVRPDYGNYGLAYWGQGTLVTVSS
VL: DIQLTQSPSSLSASVGDRVTITCSASSSISSHYLHWYQQKPGKSPKLLIYRSFYLASGVPSRFSGSGSGTDFTLTISSLQPEDFATYYCQQDIVPLTFGQGTKLEIKR
notes: Humanized IgG1/kappa, produced in 293 cells; also called humanized CL069707-H1L1

Source: patent US20250090677A1 (MULTITUDE THERAPEUTICS, published 2025)
